Residue numbers refer to the chain shown, from its start. Read-outs that look alike come from different tables or passages of the source. One block for each binder: values may come before it.
Tests used:
[1] = molecular target: T1, recombinant human TIM-3-Fc fusion protein (huTIM-3-Fc) (human, UniProt Q8TDQ0 22-200); test: competition ELISA on coated Fc-TIM-3, competitor galectin-9
T1 construct: range 22-200; Bought from R&D Systems (NS0-derived); Deglycosylated for HDX-MS; also called recombinant human Fc-TIM-3 chimera; TIM-3 IgG1 Fc Chimera; not shown: IgG1 Fc of the bought chimera

[2] = molecular target: T2, Full length human PD1 (huPD1) on cells (human, UniProt Q15116 25-288); test: cell-based or functional assay
[3] = molecular target: T3, Extracellular domain of cyno PD1 (cPD1-ECD) (Macaca fascicularis (cynomolgus)); test: SPR ProteOn, captured mAb, cynoPD1-ECD analyte
T3 construct: Expressed with a hexahistidine tag or as Fc fusion; also called cynoPD1-ECD; cynoPD-1-ECD
T3 chain: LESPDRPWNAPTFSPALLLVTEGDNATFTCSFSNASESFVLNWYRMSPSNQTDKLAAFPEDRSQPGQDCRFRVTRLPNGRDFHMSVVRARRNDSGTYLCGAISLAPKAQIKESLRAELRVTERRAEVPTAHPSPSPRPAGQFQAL
Description: (§1) Affinity measurements using Surface Plasmon Resonance (SPR) were performed using a ProteOn XPR36 system. A biosensor surface was prepared by coupling a mixture of anti-IgG Fc modified alginate polymer layer surface of a GLC chip using the manufacturer instructions for amine-coupling chemistry. […] The collected data were processed and fitted to a Langmuir 1:1 binding model. The result for each mAb was reported in the format of kₒₙ (On-rate), koff (Off-rate) and KD (equilibrium dissociation constant).
(§2) STDEV were calculated for 3 or more replicates generated for human and cyno proteins. If less than 3 replicates were calculated, RANGE was indicated. RANGE is defined as the low and high values for the replicates tested. For samples in the Table 10 or Table 11 without value indicated in RANGE or STDEV, only one experiment was performed.

[4] = molecular target: T4, Extracellular domain of human PD1 (huPD1-ECD) (human, UniProt Q15116 25-169, biotinylated in the ligand inhibition assay (sites not given)); test: MSD ligand inhibition, competitor coated cynoPDL1-ECD
T4 construct: Expressed with a hexahistidine tag or as Fc fusion; also called biotinylated PD-1

[5] = molecular target: T3, Extracellular domain of cyno PD1 …; test: SPR ProteOn, cynoPD1-ECD; RANGE high replicate
Description: as §1, §2

[6] = molecular target: T3, Extracellular domain of cyno PD1 …; test: SPR ProteOn, cynoPD1-ECD; RANGE low replicate
[7] = molecular target: T4, Extracellular domain of human PD1 …; test: SPR ProteOn, captured mAb, huPD1-ECD analyte
Description: as §1, §2

[8] = molecular target: T2, Full length human PD1 (huPD1) on cells; test: flow cytometry, PHA-stimulated Jurkat cells
[9] = molecular target: T3, Extracellular domain of cyno PD1 …; test: SPR ProteOn, cynoPD1-ECD; RANGE high replicate; RANGE high replicate
Description: as §1, §2

[10] = molecular target: T3, Extracellular domain of cyno PD1 …; test: SPR ProteOn, captured mAb, cynoPD1-ECD analyte
Description: as §1
(§3) STDEV were calculated for 3 or more replicates generated for human and cyno proteins. If less than 3 replicates were calculated, RANGE is indicated. RANGE is defined as the low and high values for the replicates tested. For samples without RANGE or STDEV, only one experiment was performed

[11] = molecular target: T4, Extracellular domain of human PD1 …; test: SPR ProteOn, captured mAb, huPD1-ECD analyte; remark: listed apart in the source
Description: as §1, §3

T2 sequence (Q15116 25-288 limits assumed): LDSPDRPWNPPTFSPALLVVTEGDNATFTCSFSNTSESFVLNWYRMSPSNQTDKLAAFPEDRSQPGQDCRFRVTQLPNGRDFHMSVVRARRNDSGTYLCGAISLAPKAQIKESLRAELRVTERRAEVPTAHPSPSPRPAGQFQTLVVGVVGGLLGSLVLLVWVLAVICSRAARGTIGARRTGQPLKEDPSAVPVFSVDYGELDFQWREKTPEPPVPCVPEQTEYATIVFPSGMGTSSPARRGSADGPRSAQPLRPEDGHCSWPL
T4 sequence (Q15116 25-169 limits assumed): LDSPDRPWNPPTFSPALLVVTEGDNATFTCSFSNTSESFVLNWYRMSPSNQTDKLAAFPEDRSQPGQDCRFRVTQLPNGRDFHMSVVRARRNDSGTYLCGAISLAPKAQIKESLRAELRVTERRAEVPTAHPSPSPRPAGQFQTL

- Galectin 9 Inhibition, % inhibition (maximal) [1]: 75.6%
B1: TM3B113 (antibody, V domains shown)
VH: EVQLLESGGGLVQPGGSLRLSCAASGFTFSDYWMSWVRQAPGKGLEWVSVIKYSGGSKYYADSVKGRFTISRDNSKNTLYLQMNSLRAEDTAVYYCAKELEGVFDYWGQGTLVTVSS
VL: EIVLTQSPGTLSLSPGERATLSCRASQSVSNSTLAWYQQKPGQAPRLLIYTASSRATGIPDRFSGSGSGTDFTLTISRLEPEDFAVYYCQQSYTSPWTFGQGTKVEIK
notes: also called TM3H65/TM3L12

- CMV EC50, nM (IFN-γ induction) [2]: 0.02 nM
- MLR EC50, nM (IFN-γ induction) [2]: 0.07 nM
B2: PD1B243 (antibody, human IgG4 S228P, kappa, V domains shown)
VH: EVQLVESGGGLVQPGGSLRLSCAASGFAFSRYDMSWVRQAPGKGLESVAYISGGGANTYYLDNVKGRFTISRDNAKNSLYLQMNSLRAEDTAVYYCASPYLSYFDVWGQGTLVTVSS
VL: EIVMTQSPATLSVSPGERATLSCRASQSLSDYLHWYQQKPGQAPRLLIKSASQSISGIPARFSGSGSGTEFTLTISSLQSEDFAVYYCQNGHSFPYTFGQGTKLEIKR

- Galectin 9 Inhibition, % inhibition (maximal) [1]: 47.4%
B3: TM3B193 (antibody, V domains shown)
VH: EVQLQQSGAELVKPGASVKLSCTASGFHIKDTYLHWVKQRPEQGLEWIGRIDPTNGNIKYDPKFQGKATITSDTSSNTAYLQLSSLTSEDTAVYYCARPYYGFFDYWGQGTTLTVSS
VL: DIVMTQSHKFMSTSVGDRVSITCKASQDVNTAVAWYQQKPGQSPKLLIYSATYRYTGVPDRFTGSGSGTDFTFTISSVQAEDLAVYYCQQHYSTPYTFGSGTKLEIK
notes: Mouse-derived variable domains; also called TM3H99/TM3L52

- Kd [3]: 6.47 nM
- koff [3]: 0.00189 s⁻¹
- kon [3]: 292000 M⁻¹ s⁻¹
- percentage ligand not blocked at 1 µg/ml [4]: 7%
- percentage ligand not blocked at 10 µg/ml [4]: 8%
- Kd [5]: 6.9 nM
- Kd [6]: 6.1 nM
- koff [6]: 0.00184 s⁻¹
- kon [6]: 280000 M⁻¹ s⁻¹
- Kd [7]: 5 nM
- koff [7]: 0.00257 s⁻¹
- kon [7]: 515000 M⁻¹ s⁻¹
- EC50 [8]: 0.05 µg/mL
- koff [9]: 0.00193 s⁻¹
- kon [9]: 304000 M⁻¹ s⁻¹
B4: PD1B177 (antibody, V domains shown)
VH: QVQLVQSGAEVKKPGSSVKVSCKASGGTFSDYVISWVRQAPGQGLEWMGGIIPIYGTANYAQKFQGRVTITADESTSTAYMELSSLRSEDTAVYYCARGTLDRTGHLDYWGQGTLVTVSS
VL: EIVLTQSPATLSLSPGERATLSCRASQSVSSYLAWYQQKPGQAPRLLIYDASNRATGIPARFSGSGSGTDFTLTISSLEPEDFAVYYCQQRSNWPLTFGQGTKVEIK
notes: Tested as IgG2sigma; also called PD1H164/PH9L3

- CMV EC50, nM (IFN-γ induction) [2]: 0.31 nM
- MLR EC50, nM (IFN-γ induction) [2]: 0.14 nM
- Kd [10]: 0.58 nM
- koff [10]: 0.000176 s⁻¹
- kon [10]: 303000 M⁻¹ s⁻¹
- Kd [11]: 0.41 nM
- koff [11]: 0.000366 s⁻¹
- kon [11]: 883000 M⁻¹ s⁻¹
B5: PD1B196 (antibody, V domains shown)
VH: QVQLVQSGAEVKKPGSSVKVSCKASGGTFSSYAISWVRQAPGQGLEWMGGIIPIFDTANYAQKFQGRVTITADESTSTAYMELSSLRSEDTAVYYCARPGLAAAYDTGSLDYWGQGTLVTVSS
VL: B4 VL with S30R, S92N, N93Y
notes: also called PD1H170/PD1L148

- Kd [3]: 5.32 nM
- koff [3]: 0.00157 s⁻¹
- kon [3]: 294000 M⁻¹ s⁻¹
- percentage ligand not blocked at 1 µg/ml [4]: 7%
- percentage ligand not blocked at 10 µg/ml [4]: 5%
- Kd [5]: 8.4 nM
- Kd [6]: 3.5 nM
- koff [6]: 0.00128 s⁻¹
- kon [6]: 220000 M⁻¹ s⁻¹
- Kd [7]: 5.2 nM
- koff [7]: 0.00278 s⁻¹
- kon [7]: 535000 M⁻¹ s⁻¹
- EC50 [8]: 0.09 µg/mL
- koff [9]: 0.00185 s⁻¹
- kon [9]: 370000 M⁻¹ s⁻¹
B6: PD1B187 (antibody, V domains shown)
VH: B5 VH with D56G
VL: B4 VL with S30R, S92N, N93Y
notes: Tested as IgG2sigma; also called PD1H3/PD1L148

- CMV EC50, nM (IFN-γ induction) [2]: 2.6 nM
- Kd [10]: 0.96 nM
- koff [10]: 0.000293 s⁻¹
- kon [10]: 305000 M⁻¹ s⁻¹
- Kd [11]: 1.12 nM
- koff [11]: 0.000957 s⁻¹
- kon [11]: 858000 M⁻¹ s⁻¹
B7: PD1B201 (antibody, V domains shown)
VH: B4 VH
VL: B4 VL with S31N, S92N, N93Y
notes: also called PD1H164/PD1L190

- CMV EC50, nM (IFN-γ induction) [2]: 3.81 nM
- Kd [10]: 1.11 nM
- koff [10]: 0.000422 s⁻¹
- kon [10]: 380000 M⁻¹ s⁻¹
- Kd [11]: 1.17 nM
- koff [11]: 0.00122 s⁻¹
- kon [11]: 1.05e+06 M⁻¹ s⁻¹
B8: PD1B200 (antibody, V domains shown)
VH: B4 VH
VL: B4 VL with S30D, S31N, Y49H, N93A
notes: also called PD1H164/PD1L168

- MLR EC50, nM (IFN-γ induction) [2]: 0.63 nM
- Kd [10]: 0.52 nM
- koff [10]: 0.000177 s⁻¹
- kon [10]: 340000 M⁻¹ s⁻¹
- Kd [11]: 0.6 nM
- koff [11]: 0.000564 s⁻¹
- kon [11]: 933000 M⁻¹ s⁻¹
B9: PD1B199 (antibody, V domains shown)
VH: B4 VH
VL: B4 VL with Y49H, N53T, S92N, N93Y
notes: also called PD1H164/PD1L86

- CMV EC50, nM (IFN-γ induction) [2]: 0.03 nM
- MLR EC50, nM (IFN-γ induction) [2]: 0.08 nM
B10: PD1B244 (antibody, human IgG4 S228P, kappa, V domains shown)
VH: B5 VH
VL: EIVLTQSPATLSLSPGERATLSCRASQSVRSYLAWYQQKPGQAPRLLIYDASNRATGIPARFSGSGSGTDFTLTISSLEPEDFAVYYCQQRNYWPLTFGQGTKVEIKR

- Kd [3]: 30.5 nM
- koff [3]: 0.00947 s⁻¹
- kon [3]: 311000 M⁻¹ s⁻¹
- percentage ligand not blocked at 1 µg/ml [4]: 8%
- percentage ligand not blocked at 10 µg/ml [4]: 5%
- Kd [5]: 34.1 nM
- koff [5]: 0.00955 s⁻¹
- Kd [6]: 27.5 nM
- koff [6]: 0.00938 s⁻¹
- kon [6]: 280000 M⁻¹ s⁻¹
- Kd [7]: 13.1 nM
- koff [7]: 0.00765 s⁻¹
- kon [7]: 585000 M⁻¹ s⁻¹
- EC50 [8]: 0.09 µg/mL
- kon [9]: 343000 M⁻¹ s⁻¹
B11: PD1B185 (antibody, human IgG2, kappa, V domains shown)
VH: B5 VH with D56G
VL: B10 VL with S31N, N53D, N92W, Y93N
notes: IgG2sigma/kappa; VH 43, VL 55; also called PD1H3/PD1L132

- Kd [3]: 16.4 nM
- koff [3]: 0.00504 s⁻¹
- kon [3]: 307000 M⁻¹ s⁻¹
- percentage ligand not blocked at 1 µg/ml [4]: 5%
- percentage ligand not blocked at 10 µg/ml [4]: 5%
- Kd [5]: 18 nM
- Kd [6]: 15 nM
- koff [6]: 0.00486 s⁻¹
- kon [6]: 290000 M⁻¹ s⁻¹
- koff [7]: 0.0117 s⁻¹
- kon [7]: 541000 M⁻¹ s⁻¹
- EC50 [8]: 0.06 µg/mL
- koff [9]: 0.00522 s⁻¹
- kon [9]: 324000 M⁻¹ s⁻¹
B12: PD1B192 (antibody, human IgG2, kappa, V domains shown)
VH: B5 VH with D56G
VL: B10 VL with R30D, Y49H
notes: IgG2sigma/kappa; VH 43, VL 57; also called PD1H3/PD1L133

- Kd [3]: 11.5 nM
- koff [3]: 0.00274 s⁻¹
- kon [3]: 238000 M⁻¹ s⁻¹
- percentage ligand not blocked at 1 µg/ml [4]: 4%
- percentage ligand not blocked at 10 µg/ml [4]: 4%
- Kd [5]: 14.1 nM
- Kd [6]: 9.5 nM
- koff [6]: 0.00255 s⁻¹
- kon [6]: 208000 M⁻¹ s⁻¹
- Kd [7]: 11.4 nM
- koff [7]: 0.00509 s⁻¹
- kon [7]: 445000 M⁻¹ s⁻¹
- EC50 [8]: 0.08 µg/mL
- koff [9]: 0.00292 s⁻¹
- kon [9]: 268000 M⁻¹ s⁻¹
B13: PD1B184 (antibody, human IgG2, kappa, V domains shown)
VH: B5 VH with D56G
VL: B10 VL with S31N, Y49H
notes: IgG2sigma/kappa; VH 43, VL 50; also called PD1H3/PD1L128

- Kd [3]: 26.3 nM
- koff [3]: 0.00839 s⁻¹
- kon [3]: 320000 M⁻¹ s⁻¹
- percentage ligand not blocked at 1 µg/ml [4]: 5%
- percentage ligand not blocked at 10 µg/ml [4]: 5%
- Kd [5]: 28.8 nM
- Kd [6]: 23.9 nM
- koff [6]: 0.00801 s⁻¹
- kon [6]: 304000 M⁻¹ s⁻¹
- Kd [7]: 16 nM
- koff [7]: 0.00844 s⁻¹
- kon [7]: 527000 M⁻¹ s⁻¹
- EC50 [8]: 0.08 µg/mL
- koff [9]: 0.00876 s⁻¹
- kon [9]: 337000 M⁻¹ s⁻¹
B14: PD1B183 (antibody, human IgG2, kappa, V domains shown)
VH: B5 VH with D56G
VL: B10 VL with R30S, Y49K, N92G
notes: IgG2sigma/kappa; VH 43, VL 54; also called PD1H3/PD1L109

- Galectin 9 Inhibition, % inhibition (maximal) [1]: 57%
B15: TM3B196 (antibody, V domains shown)
VH: QVQLKESGPGLVAPSQSLSITCTISGFSLTSYGVHWVRQPPGKGLEWLVVIWSDGSTTYNSALKSRLSISKDNSKSQVFLKMNSLQTDDTAMYYCARQANYRYDSAMDYWGQGTSVTVSS
VL: DIQMTQSPASLAVSLGQRATISCKASQSVDYDGDSYMNWYQQKPGQPPKLLIYTAANLQSGIPARFSGSGSGTDFTLNIHPVEEEDAATYYCQQSNEDPFTFGSGTKLEIK
notes: Mouse-derived variable domains; also called TM3H102/TM3L64
